Test [1] has as its target T1, hFcγR2B (human, UniProt P31994 46-217, tagged with biotin or histidine (which one is not stated for this receptor)).
T1 sequence (looked up): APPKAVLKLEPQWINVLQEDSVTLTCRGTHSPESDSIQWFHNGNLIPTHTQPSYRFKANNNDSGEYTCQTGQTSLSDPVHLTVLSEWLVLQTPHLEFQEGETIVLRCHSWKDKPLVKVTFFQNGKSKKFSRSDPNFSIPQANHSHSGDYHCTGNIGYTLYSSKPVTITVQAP
In words: BLI, Bio-hFcR2B.

For test [2], the target named is T2, hFcγR3A 176V (human, UniProt P08637 17-208, tagged with biotin or histidine (which one is not stated for this receptor)). In words: BLI, Bio-hFcR3A 176V.
T2 sequence (P08637 17-208 F176V limits assumed): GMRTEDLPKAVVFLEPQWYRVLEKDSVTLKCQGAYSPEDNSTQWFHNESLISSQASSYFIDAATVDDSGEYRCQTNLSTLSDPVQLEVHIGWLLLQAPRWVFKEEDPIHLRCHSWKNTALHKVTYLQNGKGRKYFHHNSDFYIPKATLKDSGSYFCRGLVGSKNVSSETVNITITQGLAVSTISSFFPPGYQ
Test [3] concerns the target T2, hFcγR3A 176V. Nature of the test: BLI.
Procedure: (§1) To identify Fc modifications that abrogate Fc gamma receptor binding and thereby silence antibody effector functions, IgG antibodies containing one or more amino acid substitution in the Fc region were assessed in an Octet binding assay to measure their ability to bind to different Fc gamma receptors.
(§2) The binding assays were performed at 25° C. in phosphate buffered saline with (0.1% BSA, 0.02% Tween-20) using Bio-Layer Interferometry Device (ForteBio).
Test [4] concerns the target T1, hFcγR2B. Nature of the test: BLI. On the technique in general: In BLI a coated tip is dipped into the sample, and binding shifts an interference pattern.
Procedure: as §1, §2

B1: Ab2 D265C N297Q H435A (antibody, human IgG1, kappa, N297Q)
heavy: EVQLVQSGAEVKKPGESLKISCKGSGYSFTNYWIGWVRQMPGKGLEWMAIINPRDSDTRYRPSFQGQVTISADKSISTAYLQWSSLKASDTAMYYCARHGRGYEGYEGAFDIWGQGTLVTVSSASTKGPSVFPLAPSSKSTSGGTAALGCLVKDYFPEPVTVSWNSGALTSGVHTFPAVLQSSGLYSLSSVVTVPSSSLGTQTYICNVNHKPSNTKVDKKVEPKSCDKTHTCPPCPAPELLGGPSVFLFPPKPKDTLMISRTPEVTCVVVCVSHEDPEVKFNWYVDGVEVHNAKTKPREEQYQSTYRVVSVLTVLHQDWLNGKEYKCKVSNKALPAPIEKTISKAKGQPREPQVYTLPPSRDELTKNQVSLTCLVKGFYPSDIAVEWESNGQPENNYKTTPPVLDSDGSFFLYSKLTVDKSRWQQGNVFSCSVMHEALHNAYTQKSLSLSPGK
light: not shown
notes: copies: 2 + 2
Regarding B1, the “Normalized Response” value in test [1] is 4 % of WT; in test [2], 1 % of WT. In addition, the binding result in test [3] and in test [4] was “no binding (tested: 300 nM)” in each case.

For the origin of these results see US20240075157A1 (MAGENTA THERAPEUTICS, published 2024).
